The results in this text go back to the DeepSol protein solubility set.

A short description of the data set: soluble on expression in E. coli; label from the status in PepcDB or PDB records.
As for “MPIGNLGHNPNVNNSIPPAPPLPSQTDGAGGRGQLINSTGPLGSRALFTPVRNSMADSGDNRASDVPGLPVNPMRLAASEITLNDGFEVLHDHGPLDTLNRQIGSSVFRVETQEDGKHIAVGQRNGVETSVVLSDQEYARLQSIDPEGKDKFVFTGGRGGAGHAMVTVASDITEARQRILELLEPKGTGESKGAGESKGVGELRESNSGAENTTETQTSTSTSSLRSDPKLWLALGTVATGLIGLAATGIVQALALTPEPDSPTTTDPDAAASATETATRDQLTKEAFQNPDNQKVNIDELGNAIPSGVLKDDVVANIEEQAKAAGEEAKQQAIENNAQAQKKYDEQQAKRQEELKVSSGAGYGLSGALILGGGIGVAVTAALHRKNQPVEQTTTTTTTTTTTSARTVENKPANNTPAQGNVDTPGSEDTMESRRSSMASTSSTFFDTSSIGTVQNPYADVKTSLHDSQVPTSNSNTSVQNMGNTDSVVYSTIQHPPRDTTDNGARLLGNPSAGIQSTYARLALSGGLRHDMGGLTGGSNSAVNTSNNPPAPGSHRFV”, the “soluble on expression in E. coli” value is listed as “not soluble”.

As for “MFGLKVKNAEADTAKSNEKLQGAEATGSSTTSGSGQSTQRGGSSGDTKVKALQVAVKKKSGSQGNSGDQGTEQVELESNDLANAPIKRGSNPASPTQGSRLRHHPIQFGIWSIRHPHPLKAVACDRANSQGPPQMIRLDPHSVRCALCL”, the “soluble on expression in E. coli” value is listed as “soluble”.

“MCMAQRLNVNPTRMELSKLKKRLATATRGHKLLKDKQDELMRQFINLIKYNNQLRDEVEKELGSSLKDFVMARAVMSSEFLEEAIAYPKEEIEVEVGNKNIMSVNVPIMNFKRKLEGDEGSIYPYGFMNTSAELDDAISKLYGILPKLLELAEVEKSGQLMADEIEKTRRRVNALEYMTIPQLKETIRYIRMKLDENERSALTRLMKVKSMIEQRGLEHHHHHH”: the “soluble on expression in E. coli” value is on record as “not soluble”.

As for “MSLLKKIERAQQLLKKEAAVFRCPTCHEPMHLEGVGLICQQRHQFDLSKKGTLYFLNHGVQTEYNKKMFTSRGKMIQSGMYAPVLNKIMHYLPQNKTVVDVGCGEGSFLAELSQAGLSGLKIGFDLSKEGIYLASNQPIDAFWCVADLTNLPFANEGLDTILNIFSPSHYQEFRRVLKADGTVIKIIPEENYLKELRAAFYPNDEKKQSYSNQKVVQRFAEELAVEVDERITYCFDIPEERRLDLLEMSPLEWQVSQEVKAELQQRPLEKITIDVRLLVGRKREGHHHHHH”, the “soluble on expression in E. coli” value is “soluble”.

On to “MTWEFENPLFVNSSGTAVGPKEKEGPLGHLFDKSYDEMHCNQKNWEMAERKLMEDAVQSALSKQNLKKEDIDIFLAGDLLNQNVTANYVARHLKIPFLCLFGACSTSMESIAISSALIDGGFAKRALAATSSHNATAERQFRYPTEYGGQKPGTATSTVTGSGAVVLSQQPGGIKITSATVGRVIDLGITDSQDMGSAMAPAAADTIKQHLEDLGRTPDDYDLILTGDLSGVGSPILKDLLKEEGINVGTKHNDCGLMIYTPDQQVFAGGSGCACSAVVTFAHIFKEIEAGRLNRVLVVATGALLSPTIIQQKESIPCIAHGVVFERAERGNALEHHHHHH”, for which the “soluble on expression in E. coli” value was “not soluble”.

For the sequence “MDKIKVGLQYWIPQHGLTRLVGKLASAKAGSLTTAVIRWFIKQYNVNMDEAKHSDPKHFKTFNEFFVRELKEGARPITEGDEIITHPADACVSQFGPIEDGQLIQAKGHNYSAQELLGGDEKLAEEFKDGSFATLYLSPRDYHRVHMPCDGTLRQMIYVPGDLFSVNPLTAENVPNLFARNERVVCIFDTEFGPMAQVLVGATIVGSIEQVWAGTITPPRGNTVYKWDYPAEGDKAVILKKGEEMGRFKLGSTVINLFAKDAIEFDVSMENGQPTVMGTPYALKKLEHHHHHH”, the “soluble on expression in E. coli” value was “soluble”.

As for “MGSDKIHHHHHHMPFVFACLSIKIPRKGTVMAEPLATTPIRYSFGADEHLFAEVSESMSLEAFFKGMAVTRAVERMALDGVLDVCLANASFQVRFDPDRIAPEALLEAVRGAEAQAVAERSLQTRIIEIPVLYNDPWTHETLMRFRDRHQDPTSTDLEYAARINGLADVEAFIAAHSGAPWFVSMVGFVAGLPFMFQMVERERQLQVPKYLRPRTDTPKLTLGHGGCFGCIYSVRGAGGYQMFGVTPAPIYDPQQTLNYLKEHMVFFRPGDIVQFKPIDRRTYDQAVAEVEDGCFDLRIRPVAFSLDAFLADPVGYPKSLQEVLA”, the “soluble on expression in E. coli” value is “not soluble”.

As to “MGSIPRVLISADRSSSGKTTISMGLMAALVSRGYKVQPFKVALDYIDPSYHTEITGRFCRNLDGYLMDEHGILDVYTHACETGGGADIAIIEGVRGLFEGFESLSDVGSTAQIAKILKCPVVFVINARSITRSAAALIGGYKNFDPDVEIAGVILNNIGGRRHAQKAKEAIEHYTGVPVLGIIPRDPSMQISMRHLGLMPALEGLEHHHHHH”, the “soluble on expression in E. coli” value was “not soluble”.

With “MSQEVEETLKRIQSHKGVVGTIVVNNEGIPVKSTLDNTTTVQYAGLMSQLADKARSVVRDLDPSNDMTFLRVRSKKHEIMVAPDKDFILIVIQNPTD”, the “soluble on expression in E. coli” value was “soluble”.

With “MRLERTFDPNDLSTQNMESPICLPIGFVHFLAQSQTLQQVLDTVAEWINRIFESDRTSITLYENSDYLKVYSFSGNKAIPADFLVPIDQAFVGRVFKNQQLIICDDVSQSDELDCVMLTSSGMGTCMDAPLMHGQMCLGTLNVAHHQTHFYTKEQAAQLQCIANWIALNI”, the “soluble on expression in E. coli” value is recorded as “not soluble”.

“SIRLPAHLRLQPIYWSRDDVAQWLKWAENEFSLRPIDSNTFEMNGKALLLLTKEDFRYRSPHSGDELYELLQHILKQRDHHHHHHHRHD”: the “soluble on expression in E. coli” value was “soluble”.

Take “MAGQIRMSPEELKSKATRYGQGANQIEDILRQLQNLQNELRGEWEGRAFEGFDQQFNQLKPKVQNFAQLLQEINMQLNKTAEAVARHDEDLSRNFGLQ”: the “soluble on expression in E. coli” value is listed as “not soluble”.

In the case of “MSDITISRPEVVNGHTDVICSTSIRHILAVRKSTLLQIDTLIRQLAEISVLTESIGGKTAPDWAMKQDFRCGCWLMEKPETAMKAITRNLDREIWRDLMQRSGMLSLMDTQARDTWYRSLEYDNFPEISEANILSTFEQLHQNKDEVFERGVINVFRGLNWNYKTNCPCKFGSKIIVNNLVRWDRWGFHLITGQQADRLADLERMLHLFSGKPIPDNRGNITLRLDDHIQSVQGKESYEDEMFSIRYFKKGSAHITFRKPELVDRLNDIIAKHYPDMLAV”, the “soluble on expression in E. coli” value was “soluble”.

As for “MTEITHRTKTRPVKVGNLTIGGNNEVVVQSMTTTKTHDVEATVAEIKRLEEAGCQVVRVACPDMRAAEAIPAIKKQISIPLVVDIHFDYKLALKAIEGGADKIRINPGNIGKRHKVEAVVKAAKEKGIPIRIGVNAGSLEKRILDKYGYPTADGMVESALHHIKILEDLDFHDIIVSMKASDVNLAIEAYEKAAKAFDYPLHLGITESGTLFAGTVKSAAGLGAILNMGIGNTVRVSLSADPVEEVKVARELLKSFGLASNAATLISCPTCGRIEIDLISIANEMEEYISKIRAPIKVAVLGCAVNGPGEAREADIGIAGARGEGLLFRKGEIVRKVPEETMVEELKKEIDKIAEEYFAKQKELEKA”, the “soluble on expression in E. coli” value is recorded as “not soluble”.

As for “AIAEEDEFIGEKTFQRYCAEFIKHSQQIGDSWEWRPSKDCSDGYMCKIHFQIKNGSVMSHLGASTHGQTCLPMEEAFELPLDDCEVIETAAASEVIKYEYHVLYSCSYQVPVLYFRASFLDGRPLTLKDIWEGVHECYKMRLLQGPWDTITQQEHPILGQPFFVLHPCKTNEFMTPVLKNSQKINKNVNYITSWLSIVGPVVGLNLPLSYAKATSQDERNVP”, the “soluble on expression in E. coli” value is listed as “soluble”.

Consider “MLQLTHVTLKTRQVILQDVDFTFKKGRVYGLLAINGSGKTTLFRAISNLIPISSGNIAAPPSLFYYESIEWLDGNLSGMDYLRLIKNIWKSGLNLRDEIAYWEMSDYISLPIRKYSLGMKQRLVIAMYFLSQAKCWLMDEITNGLDEYYRQKFFDRLAQIDRQEQLVLLSSHYKEELVDVCDRVVTIHQGQIEEV”, for which the “soluble on expression in E. coli” value is reported as “not soluble”.

As for “MGSDKIHHHHHHMKISFPHMGYSYIAFKWLVNHLGHECIVPPEPSKKTLDLGVRYSPEFACIPFKILMGTYLEVAEKGAEIILTSGGMGPCRAGYYWVMHQYILDEIGKKVKVIAFEPPLCDLRDFWRKLHRLRVSGGLSVKAFIQVLKVAWEKIKAIDDMEMQSHSIRPYEEKRGDTTRALWKALEFVDEANGEDEVNEARQEGLKVLQGVRRDENRDPLKIGIIGEIYVVLEPSANHYLQIMLGEMGVYTDRSIYLSSYTRKNTIVNLEGDIFQVARPYLNEAPIGGHGVNSIGETILYARHGFDGVVQLAPFACIPEIVAKSIIPAVSRDFNIPVLTLFIDEQTGKAGVQTRLEAFVDLLEKRREHKRQRERWAI”, the “soluble on expression in E. coli” value is “not soluble”.
